Data on one molecule can be found in patent publication US20170176465, “RNA APTAMER AND SENSOR EMPLOYING SAME” (Kyocera Corporation, published 2017).

For data set [1], the target named is Human serum albumin (HSA) (Homo sapiens, UniProt P02768 P02768:25-609). In words: surface acoustic wave sensor; 5'-thiol aptamer. The following applies: label: 5'-biotin, 5'-amino or 5'-thiol. The procedure: (§1) (11) A hemoglobin sample having been diluted into 11.6 μM with HBS-P(+MgCl2) was introduced through the passage 15 to the sensing element 3. Then, the amount of phase change occurring after 5 minutes of reaction was measured. Similarly, measurement was performed with employing human serum albumin (HSA) as a sample. Further, as for the hemoglobin sample, measurement was performed on samples of various concentrations.
Sequence of Human serum albumin (HSA) (P02768 25-609, one chain of several): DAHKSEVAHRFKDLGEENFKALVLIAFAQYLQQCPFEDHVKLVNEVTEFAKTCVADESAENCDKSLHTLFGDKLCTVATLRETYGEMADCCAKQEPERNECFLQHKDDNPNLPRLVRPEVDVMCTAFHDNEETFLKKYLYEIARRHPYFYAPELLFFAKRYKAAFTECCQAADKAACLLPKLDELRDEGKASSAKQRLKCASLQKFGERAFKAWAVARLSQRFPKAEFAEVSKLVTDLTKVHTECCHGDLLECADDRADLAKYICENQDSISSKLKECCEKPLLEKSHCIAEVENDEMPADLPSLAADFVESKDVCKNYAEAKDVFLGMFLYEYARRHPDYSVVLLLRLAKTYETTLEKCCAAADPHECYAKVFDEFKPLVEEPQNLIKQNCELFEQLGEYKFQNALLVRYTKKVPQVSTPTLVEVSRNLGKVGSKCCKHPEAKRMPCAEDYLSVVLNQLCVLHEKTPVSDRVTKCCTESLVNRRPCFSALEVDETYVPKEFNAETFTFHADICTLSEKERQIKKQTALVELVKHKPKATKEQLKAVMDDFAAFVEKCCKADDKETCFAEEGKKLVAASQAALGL

In data set [2] the target is Hemoglobin (Hb), full length (Homo sapiens, UniProt P69905;P68871 P69905:2-142,P68871:2-147). In words: surface acoustic wave sensor phase change; 11.6 uM Hb; signal rises with Hb concentration; HBS-P + MgCl2. The following applies: tags: Abcam ab77858; chain copies: 2,2; label: 5'-biotin, 5'-amino or 5'-thiol. As for the experimental part:
as §1

Sequence of Hemoglobin (Hb), full length (P69905 2-142, chain 1 of 2): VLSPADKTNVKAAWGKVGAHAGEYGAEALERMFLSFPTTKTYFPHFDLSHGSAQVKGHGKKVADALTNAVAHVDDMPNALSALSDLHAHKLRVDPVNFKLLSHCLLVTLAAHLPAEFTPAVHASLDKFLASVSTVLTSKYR
Sequence of Hemoglobin (Hb), full length (P68871 2-147, chain 2 of 2): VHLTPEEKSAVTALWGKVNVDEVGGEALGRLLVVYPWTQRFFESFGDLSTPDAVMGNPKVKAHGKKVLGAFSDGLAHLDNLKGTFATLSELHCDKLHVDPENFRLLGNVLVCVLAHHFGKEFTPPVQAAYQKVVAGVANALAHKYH

As to CGUAUUACGGCAUUAUUAGGACCAAUGCUGAGUACG (ssRNA) [6R_28 partial (36-mer)], the results for the binding result in data set [1] and in data set [2] were “no binding” and “binds”, respectively.
